Measurements as given in patent US20080241162A1 (GENERAL ANTIBODIES AND BIOTECHNOLOGIES S R L, published 2008).

B1: human recombinant Fab e8 (Fab, V domains shown)
VH: LLEQSGAEVKMPGATVKVSCQSSRYTFTSYGIGWVRQAPGQGLEWMGWISGYTHETKYAQSFQGRVTMTAETSTGTAYMELRSLRSDDTATYYCARDGGGRVVVPPTHLRAFDVWGQGT
VL: MAELTQSPGTLSLSPGERATLSCRASHRVNNNFLAWYQQKPGQAPRLLISGASTRATGIPDRFSGSGSGTDFTLTISRLEPDDFAVYYCQQYGDSPLYSFGQGT
B2: human recombinant Fab e20 (Fab, V domains shown)
VH: LLEQSGAEVKKPGSSVKVSCKASGDHYGINWVRQAPGQGLEWMGGIIPVFGTTTYAQKFQGRATITADDSTGTAFLELTRLTFDDTAVYFCATPHQLHVLRGGKALSPWDYWGQGT
VL: MAELTQSPATLSVSPGERATLSCRASQSVSSNLAWYQQKRGQAPSLLIYGTSTRATGIPARFSGSGSGTEFTLTISSLQSEDFAVYYCQQYNDWPSTFGQGT
B3: human recombinant Fab e137 (Fab, V domains shown)
VH: LLEQSGSEVKVPGSSLKVSCKTSGGTFSTYTFSWVRQAPGQGLEWMGGITPIIGIANYARNFQDRVTITADESTSTVYMEVRRLRSEDTAVYYCAKTSEVTATRGRTFFYSAMDVWGQGT
VL: MAELTQSPSFLSASVGDRVTITCRASQGISNYLAWYQQKPGKAPKLLIYAASTLQSGVPSRFSGSGSWTEFTLTISRLQPEDFATYYCQHLNTYPWTFGQGT
B4: human recombinant Fab e301 (Fab, V domains shown)
VH: LLEQSGSEVKKPGSSVRVSCTTSGGTLSDYGFNWLRQAPGQGPEWMGGIIPLFRRTTYGQKFQGRLTITADESTGATYMELSSLRSDDTAVYYCAREKVSVLTGGKSLHYFEYWGKGT
VL: MAELTQSPATLSVSPGERATLSCRASQSVSSRLAWYQQKRGQAPSLLIYDTSSRATGVPARFSASGSGTQFTLTISSLQSEDFALYYCQQYNDWPSTFGQGT
B5: human recombinant Fab e509 (Fab, V domains shown)
VH: LLEESGAEVKKPGSSVKVSCKTSGDTFRYGITWVRQAPGQGLEWMGQIMPTFATATYAQRFQGRVTISADESTSTAYLEVRSLRSEDTAVYYCATPRQVTILRGPKALSPWDYWGQGT
VL: not shown

Molecular target: purified recombinant HCV/E2 of 1a genotype (strain H) expressed in CHO cells (Hepatitis C virus genotype 1a (strain H), UniProt P27958 388-664)
Sequence (P27958 388-664 limits assumed): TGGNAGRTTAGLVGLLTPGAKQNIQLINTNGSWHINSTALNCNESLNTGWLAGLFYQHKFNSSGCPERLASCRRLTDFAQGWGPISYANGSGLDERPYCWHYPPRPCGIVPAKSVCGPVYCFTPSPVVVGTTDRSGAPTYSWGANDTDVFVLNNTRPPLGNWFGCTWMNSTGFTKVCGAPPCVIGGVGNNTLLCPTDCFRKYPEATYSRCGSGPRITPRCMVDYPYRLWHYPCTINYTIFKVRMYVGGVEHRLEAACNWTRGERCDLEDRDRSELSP

| Binder | IC50 |
| --- | --- |
| B1 | > 40 µg/mL |
| B2 | 3 µg/mL |
| B3 | 40 µg/mL |
| B4 | 3 µg/mL |
| B5 | < 0.035 µg/mL |
